The values below come from paper PMC5770238 (Science (New York, N.Y.), 2017).

Read-outs that look alike come from different tables or passages of the source.

Common to all, as to experiment: fluorescence polarisation
(In general: Polarisation of emitted light reports the rotation of a fluorescent probe.)

Experiment [1] concerns the target T1, Hsp104 (S. cerevisiae AAA+ disaggregase), wild type (S. cerevisiae, UniProt P31539 1-908).
The target of experiment [2] is T2, Hsp104 T317A (sensor 1 ATPase mutant in NBD1) (S. cerevisiae, UniProt P31539 1-908, T317A).
T2 sequence (P31539 whole entry T317A): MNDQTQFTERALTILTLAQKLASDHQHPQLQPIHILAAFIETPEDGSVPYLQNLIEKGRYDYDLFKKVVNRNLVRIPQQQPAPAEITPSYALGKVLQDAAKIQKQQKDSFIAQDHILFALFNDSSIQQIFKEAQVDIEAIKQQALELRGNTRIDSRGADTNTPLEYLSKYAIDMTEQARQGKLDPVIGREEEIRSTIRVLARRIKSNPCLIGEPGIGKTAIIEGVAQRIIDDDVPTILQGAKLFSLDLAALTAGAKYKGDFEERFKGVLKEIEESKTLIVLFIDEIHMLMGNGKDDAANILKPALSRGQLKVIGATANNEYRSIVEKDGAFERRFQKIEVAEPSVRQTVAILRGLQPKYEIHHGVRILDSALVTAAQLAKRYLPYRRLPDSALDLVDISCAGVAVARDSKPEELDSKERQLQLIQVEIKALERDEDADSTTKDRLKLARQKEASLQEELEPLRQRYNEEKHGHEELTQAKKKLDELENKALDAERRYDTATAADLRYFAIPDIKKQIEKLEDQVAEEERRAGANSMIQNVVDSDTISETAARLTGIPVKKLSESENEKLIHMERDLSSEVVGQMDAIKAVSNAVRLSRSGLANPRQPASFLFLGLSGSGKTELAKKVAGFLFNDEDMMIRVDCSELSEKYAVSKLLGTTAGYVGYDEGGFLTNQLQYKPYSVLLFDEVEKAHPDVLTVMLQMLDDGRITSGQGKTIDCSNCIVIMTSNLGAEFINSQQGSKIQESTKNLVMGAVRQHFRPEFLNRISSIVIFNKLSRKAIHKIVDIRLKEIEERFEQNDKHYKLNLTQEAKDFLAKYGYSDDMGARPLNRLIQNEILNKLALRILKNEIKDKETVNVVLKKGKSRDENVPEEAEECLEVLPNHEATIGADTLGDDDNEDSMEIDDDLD
The target in experiment [3] is T3, Hsp104 N728A (sensor 1 ATPase mutant in NBD2) (S. cerevisiae, UniProt P31539 1-908, N728A).
T3 sequence (P31539 whole entry N728A): as the sequence (P31539 whole entry T317A) above, with A317T, N728A counted along it
The target of experiment [4] is T1, Hsp104 (S. cerevisiae AAA+ …). The source holds these as a separate data set.
The target of experiment [5] is T2, Hsp104 T317A (sensor 1 ATPase mutant in …). The source holds these as a separate data set.
Experiment [6] addresses T3, Hsp104 N728A (sensor 1 ATPase mutant in …). This is another data set of the same source.

T1 sequence (P31539 whole entry): as the sequence (P31539 whole entry T317A) above, with A317T counted along it

B1: FITC-labeled casein (natural protein)
chain: RPKHPIKHQGLPQEVLNENLLRFFVAPFPEVFGKEKVNELSKDIGSESTEDQAMEDIKQMEAESISSSEEIVPNSVEQKHIQKEDVPSERYLGYLEQLLRLKKYKVPQLEIVPNSAEERLHSMKEGIHAQQKEPMIGVNQELAYFYPELFRQFYQLDAYPSGAWYYVPLGTQYTDAPSFSDIPNPIGSENSEKTTMPLW
modifications: FITC label (site not stated)
For the molecule B1, the dissociation constant Kd was approximately 20 nM in experiment [1]; approximately 1400 nM in experiment [2]; 16 to 20 nM in experiment [3]; more than 2000 nM in experiment [4]; more than 2000 nM in experiment [5]; approximately 33 nM in experiment [6].

By Kd is commonly meant the concentration at which binding is half-saturated. Read a low Kd as higher affinity.
